{"source": "patent US20170292963A1", "target": "Mouse BACE1 (beta amyloid precursor protein cleavage enzyme 1), native protein in mouse brain lysate or neurons (mouse) (UniProt P56818)", "sequence (P56818 46-501 limits assumed)": "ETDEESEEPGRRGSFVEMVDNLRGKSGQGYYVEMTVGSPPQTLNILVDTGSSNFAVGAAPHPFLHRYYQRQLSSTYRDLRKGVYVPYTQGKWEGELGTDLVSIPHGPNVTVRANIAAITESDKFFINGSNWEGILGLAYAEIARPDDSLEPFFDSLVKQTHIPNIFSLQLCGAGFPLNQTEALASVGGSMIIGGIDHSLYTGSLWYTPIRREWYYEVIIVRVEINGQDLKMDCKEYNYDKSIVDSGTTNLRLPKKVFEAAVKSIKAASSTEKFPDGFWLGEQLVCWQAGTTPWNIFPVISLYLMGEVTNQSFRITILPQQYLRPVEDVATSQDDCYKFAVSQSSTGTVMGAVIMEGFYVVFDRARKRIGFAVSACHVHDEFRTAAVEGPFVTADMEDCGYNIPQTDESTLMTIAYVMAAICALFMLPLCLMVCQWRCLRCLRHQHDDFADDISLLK", "assay": "cell-based or functional assay", "data": [{"substance": "Mouse NPTX1 (Neuronal Pentraxin 1), native protein in mouse brain lysate or neurons (from UniProt Q62443 23-432)", "values": [{"measurement": "BACE1 internalized within 12 min at 37 C as percent of surface expression, NPTX1-/- neurons (surface biotinylation assay)", "result": 95, "unit": "%"}, {"measurement": "BACE1 internalized within 12 min at 37 C as percent of surface expression, WT neurons (surface biotinylation assay)", "result": 37.5, "unit": "%"}, {"measurement": "hAβ40 in media of hAPP/NPTX1-/- neurons compared to hAPP neurons (ELISA)", "result": 2, "unit": "fold"}]}]}
